Folding of the Gαolf-RLuc sensor (luminescence) in RIC-8B knockout HEK293T cells and maximal thermal shift (ΔTm) data for three molecules are collected here from paper PMC10164081.

For one test, the target named is Gαolf (human) (UniProt P38405).
The target of test [1] is purified Ric-8B (peptide-binding thermal shift assay) (mouse) (UniProt Q80XE1). Briefly: differential scanning fluorimetry.

Where no end group is shown, it is not given here.

Gαolf (human), sequence (P38405 whole entry): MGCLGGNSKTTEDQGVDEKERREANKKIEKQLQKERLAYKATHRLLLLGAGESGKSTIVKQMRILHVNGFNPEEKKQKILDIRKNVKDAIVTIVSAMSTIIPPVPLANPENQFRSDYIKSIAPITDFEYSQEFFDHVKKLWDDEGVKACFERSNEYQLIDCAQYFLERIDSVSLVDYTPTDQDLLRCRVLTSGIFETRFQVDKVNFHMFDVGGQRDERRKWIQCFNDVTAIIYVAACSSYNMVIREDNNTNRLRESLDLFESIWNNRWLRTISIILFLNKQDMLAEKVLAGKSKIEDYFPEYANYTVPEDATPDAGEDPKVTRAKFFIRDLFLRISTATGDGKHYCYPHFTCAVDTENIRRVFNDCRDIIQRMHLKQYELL

B1: Ric-8B F126A (natural protein)
chain: MDEERALYIVRAGEAGAIERVLRDYSDKHRATFKFESADEDKRKKLCEGIFKVLVKEVPTTCQVSCLEVLRILSRDKKILVPVTTKENMQILLRLAKLHESDDSLEKVSEFPVIVESLKCLCNIVANSQMAQQLSLELNLAAKLCNLLRKCKDRKFINDIKCFDLRLLFVLSLLHTDIRSQLRYELQGLPLLTQILESAFSIKWTDEYESAIDHNGPPLSPQETDCAIEALKALFNVTVDSWKVHKESDSHQFRVMAAVLRHCLLIVGPTEDKTEELHSNAVNLLSNVPVSCLDVLICPLTHEETAQEAATLDELPSDKTTEKDTALKNSTMVYNGMNMEAIHVLLNFMEKRIDKGSSYREGLTPVLSLLTECSRAHRNIRKFLKDQVLPPLRDVTNRPEVGSTVRNKLVRLMTHVDLGVKQIAAEFLFVLCKERVDSLLKYTGYGNAAGLLAARGLLAGGRGDNWYSEDEDTDTEEYKNAKP
With B1, the folding of the Gαolf-RLuc sensor (luminescence) in RIC-8B knockout HEK293T cells with Gαolf (human) was found to be 20 % reduction.

B2: Ric-8B R166A (natural protein)
chain: MDEERALYIVRAGEAGAIERVLRDYSDKHRATFKFESADEDKRKKLCEGIFKVLVKEVPTTCQVSCLEVLRILSRDKKILVPVTTKENMQILLRLAKLHESDDSLEKVSEFPVIVESLKCLCNIVFNSQMAQQLSLELNLAAKLCNLLRKCKDRKFINDIKCFDLALLFVLSLLHTDIRSQLRYELQGLPLLTQILESAFSIKWTDEYESAIDHNGPPLSPQETDCAIEALKALFNVTVDSWKVHKESDSHQFRVMAAVLRHCLLIVGPTEDKTEELHSNAVNLLSNVPVSCLDVLICPLTHEETAQEAATLDELPSDKTTEKDTALKNSTMVYNGMNMEAIHVLLNFMEKRIDKGSSYREGLTPVLSLLTECSRAHRNIRKFLKDQVLPPLRDVTNRPEVGSTVRNKLVRLMTHVDLGVKQIAAEFLFVLCKERVDSLLKYTGYGNAAGLLAARGLLAGGRGDNWYSEDEDTDTEEYKNAKP
On to B2, for which, in the test with Gαolf (human), the folding of the Gαolf-RLuc sensor (luminescence) in RIC-8B knockout HEK293T cells was found to be 59 % decrease.

For NDCRDIIQRMHLRQLMLQ-NH2 [Gαs/Gα13 C-term chimera amidated peptide], the maximal thermal shift (ΔTm) in test [1] amounted to 4.8 °C.
